The target of test [1] is T1, human CD11a (human) (UniProt P20701).
T1 sequence (looked up): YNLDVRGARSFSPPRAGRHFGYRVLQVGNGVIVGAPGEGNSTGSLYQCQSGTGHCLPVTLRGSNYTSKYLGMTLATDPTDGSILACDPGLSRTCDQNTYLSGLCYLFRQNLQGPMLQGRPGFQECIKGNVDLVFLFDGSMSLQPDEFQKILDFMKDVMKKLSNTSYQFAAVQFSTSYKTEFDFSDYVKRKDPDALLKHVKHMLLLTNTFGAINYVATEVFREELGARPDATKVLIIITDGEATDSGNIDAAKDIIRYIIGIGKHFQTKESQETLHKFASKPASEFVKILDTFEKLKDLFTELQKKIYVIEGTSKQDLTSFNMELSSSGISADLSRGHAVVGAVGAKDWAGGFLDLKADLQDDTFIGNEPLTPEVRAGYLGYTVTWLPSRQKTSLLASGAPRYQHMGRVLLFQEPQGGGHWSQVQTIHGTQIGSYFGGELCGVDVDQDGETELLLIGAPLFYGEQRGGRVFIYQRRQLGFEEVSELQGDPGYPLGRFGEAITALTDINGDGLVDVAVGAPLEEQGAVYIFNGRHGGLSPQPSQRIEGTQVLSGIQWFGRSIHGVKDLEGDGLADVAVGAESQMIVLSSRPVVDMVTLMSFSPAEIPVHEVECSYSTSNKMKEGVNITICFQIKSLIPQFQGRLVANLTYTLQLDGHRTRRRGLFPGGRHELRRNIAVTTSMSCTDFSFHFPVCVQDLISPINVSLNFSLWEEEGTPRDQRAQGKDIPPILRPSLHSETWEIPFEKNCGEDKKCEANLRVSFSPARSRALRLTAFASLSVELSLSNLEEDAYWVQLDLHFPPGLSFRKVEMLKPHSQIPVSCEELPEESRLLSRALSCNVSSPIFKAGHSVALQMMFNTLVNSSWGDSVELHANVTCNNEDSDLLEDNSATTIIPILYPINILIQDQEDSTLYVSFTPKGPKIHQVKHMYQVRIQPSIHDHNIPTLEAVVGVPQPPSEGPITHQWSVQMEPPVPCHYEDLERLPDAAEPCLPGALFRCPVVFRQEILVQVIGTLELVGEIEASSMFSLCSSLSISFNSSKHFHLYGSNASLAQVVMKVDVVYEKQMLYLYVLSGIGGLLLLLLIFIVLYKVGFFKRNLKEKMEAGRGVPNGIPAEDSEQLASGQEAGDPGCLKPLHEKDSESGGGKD
Description: FACScan, Jurkat cells.

Test [2] deals with T2, rhesus CD11a (rhesus) (UniProt H9Z8N3).
T2 sequence: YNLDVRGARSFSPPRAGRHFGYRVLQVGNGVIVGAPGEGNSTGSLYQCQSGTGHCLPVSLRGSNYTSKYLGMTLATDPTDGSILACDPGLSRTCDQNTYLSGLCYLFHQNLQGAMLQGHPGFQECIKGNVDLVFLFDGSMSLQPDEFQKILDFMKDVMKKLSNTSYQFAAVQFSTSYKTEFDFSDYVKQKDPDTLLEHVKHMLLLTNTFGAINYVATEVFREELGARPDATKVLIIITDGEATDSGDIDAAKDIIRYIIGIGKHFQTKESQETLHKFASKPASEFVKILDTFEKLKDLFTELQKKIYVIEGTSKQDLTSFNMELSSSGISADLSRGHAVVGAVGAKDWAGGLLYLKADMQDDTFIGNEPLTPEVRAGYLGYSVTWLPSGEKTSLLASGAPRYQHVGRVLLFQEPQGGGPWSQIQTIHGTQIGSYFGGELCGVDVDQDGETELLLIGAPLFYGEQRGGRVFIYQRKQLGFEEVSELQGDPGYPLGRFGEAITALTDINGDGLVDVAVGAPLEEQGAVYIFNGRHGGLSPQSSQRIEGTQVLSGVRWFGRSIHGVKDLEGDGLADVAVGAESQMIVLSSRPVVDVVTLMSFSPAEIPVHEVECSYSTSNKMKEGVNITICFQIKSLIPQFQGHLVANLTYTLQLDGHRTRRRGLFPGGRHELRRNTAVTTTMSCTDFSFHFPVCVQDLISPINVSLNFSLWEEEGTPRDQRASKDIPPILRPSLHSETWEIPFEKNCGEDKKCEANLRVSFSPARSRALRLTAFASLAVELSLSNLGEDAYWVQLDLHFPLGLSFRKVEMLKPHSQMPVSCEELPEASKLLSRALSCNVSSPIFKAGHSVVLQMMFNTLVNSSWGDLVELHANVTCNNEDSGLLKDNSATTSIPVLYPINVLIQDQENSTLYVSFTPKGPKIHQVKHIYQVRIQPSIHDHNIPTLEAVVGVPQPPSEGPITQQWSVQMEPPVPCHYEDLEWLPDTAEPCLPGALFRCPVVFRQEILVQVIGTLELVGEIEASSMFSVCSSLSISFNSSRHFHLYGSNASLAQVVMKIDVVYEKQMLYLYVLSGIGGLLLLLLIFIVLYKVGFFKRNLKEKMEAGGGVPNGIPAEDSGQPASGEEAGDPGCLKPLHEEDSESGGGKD
Briefly: binding to rhesus peripheral blood lymphocytes.

Substitutions are numbered along the chain they refer to.

B1: GlyH31Ala variant IgG1 (antibody, V domains shown)
VH: EVQLVESGGGLVQPGGSLRLSCAASGYSFTAHWMNWVRQAPGKGLEWVGMIHPSDSETRYNQKFKDRFTISVDKSKNTLYLQMNSLRAEDTAVYYCARGIYFYGTTYFDYWGQGTLVTVSS
VL: DIQMTQSPSSLSASVGDRVTITCRASKTISKYLAWYQQKPGKAPKLLIYSGSTLQSGVPSRFSGSGSGTDFTLTISSLQPEDFATYYCQQHNEYPLTFGQGTKVEIK
As for B1, the Var.EC50/HuIgG1 EC50 stood at 1.2 in test [1] and 2.4 in test [2].

B2: LysH64Ala variant IgG1 (antibody, V domains shown)
VH: B1 VH with A31G, K65A
VL: B1 VL
As to B2, the Var.EC50/HuIgG1 EC50 is 2.5 in test [1] and 1.2 in test [2].

B3: LysH73Arg variant IgG1 (antibody, V domains shown)
VH: B1 VH with A31G, K74R
VL: B1 VL
For the molecule B3, the Var.EC50/HuIgG1 EC50 in test [1] turned out to be 4.6; in test [2] it was 5.5.

B4: H2A3 variant IgG1 (antibody, V domains shown)
VH: B1 VH with A31G, H52A, S56A
VL: B1 VL
On to B4, for which the figures for the Var.EC50/HuIgG1 EC50 in test [1] and in test [2] were 4.6 and 1.3, respectively.

B5: GlnH61Ala variant IgG1 (antibody, V domains shown)
VH: B1 VH with A31G, Q62A
VL: B1 VL
As for B5, the values for the Var.EC50/HuIgG1 EC50 in test [1] and in test [2] were 4.1 and 5.3, respectively.

B6: SerH55Ala variant IgG1 (antibody, V domains shown)
VH: B1 VH with A31G, S56A
VL: B1 VL
For B6, the Var.EC50/HuIgG1 EC50 in test [1] and in test [2] was 1.3 each time.

B7: HisH52Ala variant IgG1 (antibody, V domains shown)
VH: B1 VH with A31G, H52A
VL: B1 VL
Regarding B7, the Var.EC50/HuIgG1 EC50 in test [1] is 1.5; in test [2], 0.7.

B8: SerH53Ala variant IgG1 (antibody, V domains shown)
VH: B1 VH with A31G, S54A
VL: B1 VL
For B8, the Var.EC50/HuIgG1 EC50 in test [1] was found to be 1.8; in test [2], 0.7.

B9: ArgH58Ala variant IgG1 (antibody, V domains shown)
VH: B1 VH with A31G, R59A
VL: B1 VL
In the case of B9, the Var.EC50/HuIgG1 EC50 was 1.1 in test [1] and 3.3 in test [2].

B10: LysH62Ala variant IgG1 (antibody, V domains shown)
VH: B1 VH with A31G, K63A
VL: B1 VL
Regarding B10, the figures for the Var.EC50/HuIgG1 EC50 in test [1] and in test [2] were 1.8 and 4.9, respectively.

B11: H2A2 variant IgG1 (antibody, V domains shown)
VH: B1 VH with A31G, S54A, S56A
VL: B1 VL
Turning to B11, the Var.EC50/HuIgG1 EC50 amounted to 1.9 in test [1] and 1.1 in test [2].

B12: AspH65Ala variant IgG1 (antibody, V domains shown)
VH: B1 VH with A31G, D66A
VL: B1 VL
Turning to B12, the Var.EC50/HuIgG1 EC50 is 0.8 in test [1] and 1.1 in test [2].

The values above are taken from patent EP1516629B1.
